T1: dimeric mouse ACVR1 (mouse, UniProt P37172 21-123, limits assumed)
T1 construct: also called Mouse Receptor ACVR1
T1 sequence (looked up): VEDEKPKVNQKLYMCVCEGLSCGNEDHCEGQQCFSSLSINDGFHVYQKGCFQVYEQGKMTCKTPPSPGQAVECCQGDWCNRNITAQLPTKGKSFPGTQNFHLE

T2: dimeric human ACVR1 (human, UniProt Q04771 21-123, limits assumed)
T2 construct: ACVR1'; also called Human Receptor ACVR1
T2 sequence (looked up): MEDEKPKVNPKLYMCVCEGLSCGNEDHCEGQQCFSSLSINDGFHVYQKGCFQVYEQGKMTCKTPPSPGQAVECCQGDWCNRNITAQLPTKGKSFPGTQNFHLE

T3: mouse ACVR1 extracellular domain expressed with a C-terminal myc-myc-hexahistidine tag (mouse)
T3 construct: also called mACVR1-mmh; mACVR1.mmh
T3 chain: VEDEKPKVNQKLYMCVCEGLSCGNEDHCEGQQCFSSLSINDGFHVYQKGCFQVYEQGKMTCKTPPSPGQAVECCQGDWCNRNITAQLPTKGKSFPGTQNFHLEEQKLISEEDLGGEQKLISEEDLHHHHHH

T4: dimeric human BMPR1B (human, UniProt O00238 14-126, limits assumed)
T4 construct: Construct and dimerising part not described; also called Human Receptor BMPR1B
T4 sequence (looked up): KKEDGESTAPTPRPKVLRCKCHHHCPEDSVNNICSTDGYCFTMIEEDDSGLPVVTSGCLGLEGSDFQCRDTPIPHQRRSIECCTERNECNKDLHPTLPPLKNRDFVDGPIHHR

T5: dimeric mouse ACVRL1 (mouse, UniProt Q61288 23-119, limits assumed)
T5 construct: Construct and dimerising part not described; also called Mouse Receptor ACVRL1
T5 sequence (looked up): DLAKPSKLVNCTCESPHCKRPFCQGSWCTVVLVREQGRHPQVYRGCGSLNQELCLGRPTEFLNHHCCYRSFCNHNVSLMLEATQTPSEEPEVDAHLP

T6: dimeric mouse BMPR1B (mouse, UniProt P36898 14-126, limits assumed)
T6 construct: Construct and dimerising part not described; also called Mouse Receptor BMPR1B
T6 sequence (looked up): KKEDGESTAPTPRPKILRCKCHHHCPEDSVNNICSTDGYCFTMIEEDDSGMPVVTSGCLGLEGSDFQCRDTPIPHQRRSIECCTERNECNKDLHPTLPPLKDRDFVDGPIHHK


What was measured:
dimeric mouse ACVR1 = molecular target: T1, dimeric mouse ACVR1; test: SPR Biacore T200, mAb captured by anti-human Fab, 100 nM dimeric receptor injected, 25C
Protocol: (§1) ACVR1 mAbs were tested for cross-reactivity to a panel of bone morphogenic protein type 1 receptors including human and mouse ACVR1, BMPR1A, and BMPR1B, as well as ACVRL1 on a Biacore T200 as follows. In order to measure the specificity of ACVR1 mAbs, ACVR1 mAbs were captured with anti-human Fab immobilized on a CM5 chip. 100 nM or 10 nM of dimeric human or mouse ACVR1, ACVRL1, BMPR1A or BMPR1B were injected at 30 μL/min for 2 min (duplicate injections) and the experiment was performed at 25° C. Binding of different receptors to the captured mAb was determined using Scrubber 2.0c software.

dimeric human ACVRL1 [1] = molecular target: T7, dimeric human ACVRL1 (human, UniProt P37023 22-118, limits assumed); test: as above
T7 construct: Construct and dimerising part not described; also called Human Receptor ACVRL1
Protocol: as §1

dimeric human ACVR1 = molecular target: T2, dimeric human ACVR1; test: as above
Protocol: as §1

[2] = molecular target: T3, mouse ACVR1 extracellular domain …; test: SPR Biacore T200, mAb captured by anti-human Fc, mACVR1-mmh injected, 37C
Protocol: Equilibrium dissociation constants (KD) for ACVR1 binding to purified anti-ACVR1 monoclonal antibodies were determined using a real-time surface plasmon resonance (SPR) based Biacore T200 biosensor. All binding studies were performed in 10 mM HEPES, 150 mM NaCl, 3 mM EDTA, and 0.05% v/v surfactant Tween-20, pH 7.4 (HBS-EP) running buffer at […]. The Biacore CM5 sensor surface was first derivatized by amine coupling with a monoclonal mouse anti-human Fc antibody (REGN2567) to capture anti-ACVR1 monoclonal antibodies. Different concentrations of ACVR1 reagents, human ACVR1 extracellular domain expressed with a C-terminal myc-myc-hexahistidine tag (hACVR1-mmh; REGN3111, SEQ ID NO: 63), mouse ACVR1 extracellular domain expressed with a C-terminal myc-myc-hexahistidine tag (mACVR1-mmh; REGN3407, SEQ ID NO: 65), human ACVR1 extracellular domain expressed with a C-terminal mouse IgG2a Fc tag (hACVR1-mFc; REGN3112, SEQ ID NO: 64); and mouse ACVR1 extracellular domain expressed with a C-terminal mouse IgG2a Fc tag (mACVR1-mFc, R&D system), at concentrations ranging from 0.41 nM to 100 nM in a series of 3-fold dilutions prepared in HBS-EP running buffer were injected at a flow rate of 50 μL/min for 1.5 minutes. The dissociation of different ACVR1 reagents bound to anti-ACVR1 monoclonal antibodies was monitored for 20 minutes in HBS-EP running buffer. At the end of each cycle, the anti-ACVR1 monoclonal antibodies capture surface was regenerated using a 12 sec injection of 20 mM H3PO4. The association rate (ka) and dissociation rate (kd) were determined by fitting the real-time binding sensorgrams to a 1:1 binding model with mass transport limitation using Scrubber 2.0c curve-fitting software. Binding dissociation equilibrium constant (KD) and dissociative half-life (t½) were calculated from the kinetic rates as: […]
Binding kinetics parameters for different ACVR1 reagents to anti-ACVR1 monoclonal antibodies of the invention at 37° C. are shown in Table 5 through Table 8.

dimeric human ACVRL1 [3] = molecular target: T7, dimeric human ACVRL1; test: SPR Biacore T200, mAb captured by anti-human Fab, dimeric receptor injected, 25C
Protocol: as §1

dimeric human BMPR1A = molecular target: T8, dimeric human BMPR1A (human, UniProt P36894 24-152, limits assumed); test: as above
T8 construct: Construct and dimerising part not described; also called Human Receptor BMPR1A
Protocol: as §1

dimeric mouse BMPR1A = molecular target: T9, dimeric mouse BMPR1A (mouse, UniProt P36895 24-152, limits assumed); test: as above
T9 construct: Construct and dimerising part not described; also called Mouse Receptor BMPR1A
Protocol: as §1

dimeric human BMPR1B = molecular target: T4, dimeric human BMPR1B; test: as above
Protocol: as §1

dimeric mouse ACVRL1 = molecular target: T5, dimeric mouse ACVRL1; test: as above
Protocol: as §1

dimeric mouse BMPR1B = molecular target: T6, dimeric mouse BMPR1B; test: as above
Protocol: as §1

T8 sequence (P36894 24-152 limits assumed): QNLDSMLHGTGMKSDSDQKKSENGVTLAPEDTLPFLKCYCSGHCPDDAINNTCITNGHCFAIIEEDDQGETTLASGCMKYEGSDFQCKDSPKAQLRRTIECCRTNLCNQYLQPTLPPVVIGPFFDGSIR
T7 sequence (P37023 22-118 limits assumed): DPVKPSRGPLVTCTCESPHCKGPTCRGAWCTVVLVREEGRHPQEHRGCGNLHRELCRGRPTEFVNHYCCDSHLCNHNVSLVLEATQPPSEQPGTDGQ
T9 sequence (P36895 24-152 limits assumed): as the sequence (P36894 24-152 limits assumed) above, with S16L, S21P, A74T counted along it

| 100 nM Mouse Receptor Binding (dimeric mouse ACVR1) [RU] | 100 nM Human Receptor Binding (dimeric human ACVRL1 [1]) [RU] | 100 nM Human Receptor Binding (dimeric human ACVR1) [RU] | 100 nM Ag Bound (RU) [2] [RU] | Kd [2] [nM] | koff [2] [s⁻¹] | kon [2] [M⁻¹ s⁻¹] | t½ [2] [h] | binding result (dimeric human ACVRL1 [3]) | binding result (dimeric human BMPR1A) | binding result (dimeric mouse BMPR1A) | binding result (dimeric human BMPR1B) | binding result (dimeric mouse ACVRL1) | binding result (dimeric mouse BMPR1B) | Binder |
| --- | --- | --- | --- | --- | --- | --- | --- | --- | --- | --- | --- | --- | --- | --- |
| 141 | 4 | 147 | 43 | 0.268 | 0.000181 | 674000 | 1.07 | no binding (tested: 100 nM) | no binding (tested: 100 nM) | no binding (tested: 100 nM) | no binding (tested: 100 nM) | no binding (tested: 100 nM) | no binding (tested: 100 nM) | REGN 5166 (antibody, human IgG4 S228P, kappa, V domains shown, also called REGN 5166-L1) VH: QVQLVESGGGVVQPGRSLRLSCAASGFTFSAYWMHWVRQAPGKGLEWVAVISYDGSNKYYADSVKGRFTISRDHSKNTLYLQMNSLRAEDTAVYYCAKGDAYDSWRILLGGDYYGMDVWGQGTTVTVSS VL: EIVLTQSPGTLSLSPGERATLSCRASQSVSSSYLAWYQQKPGQAPRPLIYGASSRATGIPDRFSGSGSGTDFTLTISRLEPEDFAVYYCQQGGDAPPYTFGGGTKVEIKR |
| 140 | 2 | 147 | 42 | 1.24 | 0.00167 | 1.34e+06 | 0.117 | no binding (tested: 100 nM) | no binding (tested: 100 nM) | no binding (tested: 100 nM) | no binding (tested: 100 nM) | no binding (tested: 100 nM) | no binding (tested: 100 nM) | REGN 5168 (antibody, human IgG4 S228P, kappa, V domains shown, also called REGN 5168-L1) VH: QVQLVQSGAEVKEPGASVKVSCKASGYTFAEYYMHWVRQAPGQGLEWMGAINPSGSHTSYAQKFQGRVTMTRDTSTSTVYMELSSLRSEDTAVYYCARSISGKRGGDYYGMDVWGQGTTVTVSS VL: DIQMTQSPSTLSASVGDRVTITCRASQSISSWLAWYQQKPGKAPKLLIYKASSLESGVPSRFSGSGSGTEFTLTISSLQPDDFATYYCQQYSIFPFTFGGGTKVEIKR |
| 130 | 1 | 130 | 43 | 0.226 | 0.000161 | 713000 | 1.2 | no binding (tested: 100 nM) | no binding (tested: 100 nM) | no binding (tested: 100 nM) | no binding (tested: 100 nM) | no binding (tested: 100 nM) | no binding (tested: 100 nM) | REGN 5167 (antibody, human IgG4 S228P, kappa, V domains shown, also called REGN 5167-L1) VH: QLQLQESGPGLVKPSETLSLTCTVSGGSITSSSYYWAWIRQPPGKGLEWIGKIYYSGSTHYNPSLKSRVTISVDTSKNQFSLKLSSVTAADTAVYYCARVGGHGYGDSAGLAFDIWGQGTMVTVSS VL: EIVLTQSPGTLSLSPGERATLSCRASQSVSSAFLAWYQQKPGQAPRLLIYGASYRHTGIPDRFSGSGSGTDFTLTISRLEPEDFAVYYCQHYGVGPRTFGGGTKVEIKR |

From patent US20240150474A1 (Regeneron, published 2024)
